According to US20120301469A1 (Ablynx, published 2012):
Positions count from the first letter of the chain named.

B1: Nanobody 19C4 (VHH)
VHH: EVQLVESGGGLVQAGGSLRLSCAASGRSFSNYVLGWFRQAPGKEREFVAAISFRGDSAIGAPSVEGRFTISRDNAKNTGYLQMNSLVPDDTAVYYCGAGTPLNPGAYIYDWSYDYWGRGTQVTVSS
notes: also called PMP19C4; PRSV19C4
B2: Nanobody NC41 (VHH)
VHH: EVQLVESGGGLVQAGGSLSISCAASGGSLSNYVLGWFRQAPGKEREFVAAINWRGDITIGPPNVEGRFTISRDNAKNTGYLQMNSLAPDDTAVYYCGAGTPLNPGAYIYDWSYDYWGRGTQVTVSS
B3: Nanobody 1B2 (VHH)
VHH: EVQLVESGGGLVQAGGSLRLSCAASGPTFSADTMGWFRQAPGKEREFVATIPWSGGIAYYSDSVKGRFTMSRDNAKNTVDLQMNSLKPEDTALYYCAGSSRIYIYSDSLSERSYDYWGQGTQVTVSS
notes: c-myc/His6-tagged; also called PMP1B2; PRSV1B2
B4: Nanobody 1G8 (VHH)
VHH: EVQLVESGGGSVQAGGSLRLSCAASGGSFNRFGMGWFRRAPGKERDFVAAINLSGDTTYYVDSVQGRFTISRDNANNIMYLQMNLLKPEDTADYYCAADPDPITAWKQSGAGMDYWGKGTQVTVSS
notes: also called PMP1G8; PRSV1G8
B5: Nanobody 8B10 (VHH)
VHH: EVQLVESGGGLVQAGASLRLSCAASGLAFSRYAMGWFRQAPGKERESVAAISSSGDNIYYADSVKGQFTMSRDNAKSSVYLQMINLKPEDTAVYYCAATSPLFVASDYFEASRYGYWGQGTQVTVSS
notes: also called PMP8B10; PRSV8B10
B6: Nanobody 8A1 (VHH)
VHH: EVQLVESGGGLVQPGGSLRVSCAASGFTFNDYIMGWFRQAPGKERMFIAAISGTGTIKYYGDLVRGRFTISRDNAKNTVYLRIDSLNPEDTAVYYCAARQDYGLGYRESHEYDYWGQGTQVTVSS
notes: also called PMP8A1; PRSV8A1
B7: Nanobody 13C1 (VHH)
VHH: EVQLVESGGGLVQPGGSLRLSCEASGFTWDYYVIGWFRQAPGKEREGLSCISSDGSTTYADSVKGRFTISRDNAKNTVYLQMNSLEPEDTAVYYCATDPALGCYSGSYYPRYDYWGQGTQVTVSS
notes: also called PMP13C1; PRSV13C1
B8: Nanobody 1A2 (VHH)
VHH: EVQLVESGGGLVQAGGSLRLSCAASERTFSYYAMGWFRQAPGKEREFVATISRSGEWIYYKDAMKGRFTISRDNANNAVYLQMNSLQPEDTAIYYCAADSLGGFRSASDYYNTNTYAYWGQGTQVTVSS
notes: also called PMP1A2; PRSV1A2
B9: Nanobody 13A1 (VHH)
VHH: EVQLVESGGGLVQPGGSLRLSCAASGLTLDYYALGWFRQAPGKEREGVSCISSADHSTTYADSVKGRFTISWDNAKNTVYLQMNSLKPEDTAVYYCAADPALGCYSGNYYPRYDYWGQGTQVTVSS
notes: also called PMP13A1; PRSV13A1
B10: Nanobody 19E2 (VHH)
VHH: B9 VHH with A54S, S57T, A61T, V79L, N108S, Y115F
notes: also called PMP19E2; PRSV19E2
B11: Nanobody 13B4 (VHH)
VHH: EVQLVESGGGLVQAGGSLRLSCAASGFTFDDYAIGWFRQAPGKEREAVSCISSSDGSTYYADSVKGRFTISSDNAKNMVYLQMNSLKPEDTAVYYCAADLLRTAVGCLDYRGTYYPRTTMDYRGKGTLVTVSS
notes: also called PMP13B4; PRSV13B4
B12: Nanobody 13D1 (VHH)
VHH: EVQLVESGGGLVQPGGSLRLSCATSGFTEDYYVIGWFRQAPGKEREGVSCMSSSGDSTTYADSVKGRFTISRDNAKNMVYLQMTSLKPEDTAVYYCAADFALGCYSGSYYPRYDYWGQGTQVTVSS
notes: also called PMP13D1; PRSV13D1
B13: Nanobody 20C1 (VHH)
VHH: EVQLVESGGGLVQAGGSLRLSCAASGRTFSSFAMGWFRQAPGKEREFVAAISWSGGSTYYADSVKGRFTISGDNAKNTMYLQMNSLKPEDTAVYYCAADSEILNSGAYYYPWAYVYWGQGTQVTVSS
notes: also called PMP20C1; PRSV20C1
B14: Nanobody 13E12 (VHH)
VHH: EVQLVESGGGLVQAGGSLRLSCAASGRTFSRYIMGWFRQAPGKEREFVGAISRSGDITSFADFVKGRFTMSRDNAKNTLYLQMNSLEPEDTAVYSCAANSDTYYIYSDIVVPERYDYWGQGTQVTVSS
notes: also called PMP13E12; PRSV13E12
B15: Nanobody 23E5 (VHH)
VHH: EVQLMESGGGLVQAGGSLRLSCAASGGTFSSYAMGWFRQAPGEERDFVAAIGWSGNSPYYAQFVKGRFTISRDNAKNTVHLQMNSLKPEDTAVYYCAAAHNTMGSDYEGYDYWGQGTQVTVSS
notes: also called PMP23E5; PRSV23E5
B16: Nanobody 1A6 (VHH)
VHH: EVQLVESGGGLVQAGGSLRLSCAASGRTFSSYAMGWFRQAPGKEREFVAAIWWSGGSTYYADSVKGRFTMSRDNAKNTVYLEMNNLKPEDTAVYYCAADTDSSNSGSYLYTWAYDYWGQGTQVTVSS
notes: also called PMP1A6; PRSV1A6
B17: Nanobody 1E4 (VHH)
VHH: EVQLVESGGGLVQAGGSLRLSCEASGRTFSSYGMGWFRQAPGKEREFVAAVSRLSGPRTVYADSVKGRFTISRDNAENTVYLQMNSLKPEDTAVYTCAAELTNRNPGAYYYTWAYDYWGQGTQVTVSS
notes: also called PMP1E4; PRSV1E4
B18: Nanobody 20B2 (VHH)
VHH: B17 VHH with G33D, S52T, L54W, P57A, T59G, Y81H, E100D, L101S, P106S, Y109V
notes: also called PMP20B2; PR5V20B2

Molecular target: T1, hRSV FTM-NN (membrane anchorless form of the Long fusion protein, 70 kDa) (human respiratory syncytial virus, …, UniProt P12568 26-524)
T1 construct: also called FTM-NN (Long); hRSV FTM-protein
Assay: competition ELISA on FTM-NN, competitor Synagis Mab, purified Nanobody

Row | Binder | IC50
1 | B1 | 0.209 µM
2 | B2 | 0.416 µM

Molecular target: T2, protein F of hRSV strain B-1 (on RSV B-1-infected Hep2 cells and on virus) (human respiratory syncytial virus, …, UniProt P13843 26-574)
Assay: cell ELISA on RSV B-1-infected Hep2 cells, periplasmic extract 1:50

Row | Binder | Binding Hep2-B-1 (% control) 1:50 PE
3 | B1 | 72 % control
4 | B3 | 88 % control
5 | B4 | 73 % control
6 | B5 | 94 % control
7 | B6 | 98 % control
8 | B7 | 104 % control
9 | B8 | 86 % control
10 | B9 | 84 % control
11 | B10 | 87 % control
12 | B11 | 75 % control
13 | B12 | 93 % control
14 | B13 | 37 % control
15 | B14 | 97 % control
16 | B15 | 103 % control
17 | B16 | 57 % control
18 | B17 | 55 % control
19 | B18 | 32 % control

Molecular target: T2, protein F of hRSV strain B-1 (on RSV …)
Assay: cell-based or functional assay

Row | Binder | Neutralization B-1 IC50
20 | B1 | > 10 µM
21 | B3 | 7.38 µM
22 | B4 | > 10 µM
23 | B5 | > 15 µM
24 | B6 | 12.2 µM
25 | B7 | 11.4 µM
26 | B8 | 13.7 µM
27 | B9 | 6.16 µM
28 | B10 | 4.55 µM
29 | B11 | > 15 µM
30 | B12 | 5.85 µM
31 | B13 | > 10 µM
32 | B14 | 12.3 µM
33 | B15 | > 15 µM
34 | B16 | > 10 µM
35 | B17 | > 10 µM
36 | B18 | > 10 µM

Molecular target: protein F of hRSV strain Long, on virus (inactivated hRSV Long, Hytest #8RSV79; RSV Long LM-2, ATCC VR-26) (human respiratory syncytial virus, …, UniProt P12568 26-574)
Assay: cell-based or functional assay

Row | Binder | Neutralization Long IC50
37 | B1 | 0.332 µM
38 | B4 | 10 µM
39 | B2 | 0.221 µM
40 | B13 | 5.29 µM
41 | B16 | 4.5 µM
42 | B18 | 1.76 µM

Molecular target: T2, protein F of hRSV strain B-1 (on RSV …)
Assay: cell-based or functional assay
Remark: another data set of the same source

Row | Binder | micro-neutralization of RSV B-1
43 | B1 | > 10 µM
44 | B4 | > 10 µM
45 | B2 | > 10 µM
46 | B13 | > 10 µM
47 | B16 | > 10 µM
48 | B17 | > 10 µM
49 | B18 | > 10 µM

Molecular target: T1, hRSV FTM-NN (membrane anchorless form …)
Assay: competition ELISA on FTM-NN, competitor 101F Fab, purified Nanobody

Row | Binder | IC50
50 | B3 | 0.00291 µM
51 | B6 | 0.00281 µM
52 | B7 | 0.00383 µM
53 | B8 | 0.0029 µM
54 | B9 | 0.00423 µM
55 | B10 | 0.00293 µM
56 | B11 | 0.00369 µM
57 | B12 | 0.00337 µM
58 | B14 | 0.00352 µM
59 | B15 | 0.00173 µM

Molecular target: T2, protein F of hRSV strain B-1 (on RSV …)
Assay: cell ELISA on RSV B-1-infected Hep2 cells, periplasmic extract 1:200

Row | Binder | Binding Hep2-B-1 (% control) 1:200 PE
60 | B1 | 50 % control
61 | B3 | 85 % control
62 | B4 | 43 % control
63 | B5 | 84 % control
64 | B6 | 92 % control
65 | B7 | 86 % control
66 | B8 | 66 % control
67 | B9 | 65 % control
68 | B10 | 58 % control
69 | B11 | 56 % control
70 | B12 | 75 % control
71 | B13 | 35 % control
72 | B14 | 75 % control
73 | B15 | 82 % control
74 | B16 | 39 % control
75 | B17 | 55 % control
76 | B18 | 32 % control

Molecular target: T1, hRSV FTM-NN (membrane anchorless form …)
Assay: ELISA on immobilized FTM-NN, periplasmic extract 1:10

Row | Binder | Binding Long 1:10 PE (Fold blanc)
77 | B1 | 2.5 fold blanc
78 | B3 | 3.8 fold blanc
79 | B4 | 3.7 fold blanc
80 | B6 | 3.7 fold blanc
81 | B7 | 3 fold blanc
82 | B8 | 4 fold blanc
83 | B9 | 2.9 fold blanc
84 | B10 | 3.5 fold blanc
85 | B11 | 2.7 fold blanc
86 | B12 | 3.1 fold blanc
87 | B13 | 2.7 fold blanc
88 | B14 | 3.7 fold blanc
89 | B15 | 3.4 fold blanc
90 | B16 | 4.2 fold blanc
91 | B18 | 3 fold blanc

Molecular target: T1, hRSV FTM-NN (membrane anchorless form …)
Assay: SPR (Biacore), FTM-NN amine-coupled on CM5 chip, 1:1 Langmuir fit

Row | Binder | Kd | koff | kon
92 | B3 | 0.00044 µM | 0.00017 s⁻¹ | 380000 M⁻¹ s⁻¹
93 | B9 | 0.00061 µM | 0.00035 s⁻¹ | 570000 M⁻¹ s⁻¹
94 | B10 | 0.00052 µM | 0.00024 s⁻¹ | 460000 M⁻¹ s⁻¹
95 | B2 | 0.0081 µM | 0.0067 s⁻¹ | 820000 M⁻¹ s⁻¹
96 | B14 | 0.0015 µM | 0.00016 s⁻¹ | 110000 M⁻¹ s⁻¹
97 | B15 | 0.0079 µM | 0.0013 s⁻¹ | 160000 M⁻¹ s⁻¹
